Results as given in patent publication US20230108494.

Legend:
[1] = test system: T1, TAS1 (Rh-based peptide/peptoid hybrid probe, Leu-Leu-Val-Tyr-Rh110-peptoid)
T1 sequence: LLVY

[2] = test system: T2, library peptide Leu-Leu-Val-Ala-Ala-Ala (negative control)
T2 sequence: LLVAAA

B1: 20S core particle (20S CP) of the proteasome, purified (enzyme, part only; not given: other 20S alpha and beta subunits)
chain: TTTLAFKFRHGVIVAADSRATAGAYIASQTVKKVIEINPYLLGTMAGGAADCSFWERLLARQCRIYELRNKERISVAAASKLLANMVYQYKGMGLSMGTMICGWDKRGPGLYYVDSEGNRISGATFSVGSGSVYAYGVMDRGYSYDLEVEQAYDLARRAIYQATYRDAYSGGAVNLYHVREDGWIRVSSDNVADLHEKYSGSTP
[1]
  Rate of Hydrolysis (ΔRFU/min), probe at 30 µM with purified 20S CP: 83.2 ΔRFU/min
[2]
  percent cleavage by LC/MS, 12 µM peptide with 9 nM 20S CP for one hour: less than 10% of the peptide cleaved
